In article PMC6149797, “Rational Engineering of a Flavoprotein Oxidase for Improved Direct Oxidation of Alcohols to Carboxylic Acids” (Molecules : A Journal of Synthetic Chemistry and Natural …, 2017):

B1: 5-(hydroxymethyl)furfural oxidase (HMFO) (Methylovorus sp. MP688) (protein)
chain: MTDTIFDYVIVGGGTAGSVLANRLSARPENRVLLIEAGIDTPENNIPPEIHDGLRPWLPRLSGDKFFWPNLTIHRAAEHPGITREPQFYEQGRLLGGGSSVNMVVSNRGLPRDYDEWQALGADGWDWQGVLPYFIKTERDADYGDDPLHGNAGPIPIGRVDSRHWSDFTVAATQALEAAGLPNIHDQNARFDDGYFPPAFTLKGEERFSAARGYLDASVRVRPNLSLWTESRVLKLLTTGNAITGVSVLRGRETLQVQAREVILTAGALQSPAILLRTGIGPAADLHALGIPVLADRPGVGRNLWEHSSIGVVAPLTEQARADASTGKAGSRHQLGIRASSGVDPATPSDLFLHIGADPVSGLASAVFWVNKPSSTGWLKLKDADPFSYPDVDFNLLSDPRDLGRLKAGLRLITHYFAAPSLAKYGLALALSRFAAPQPGGPLLNDLLQDEAALERYLRTNVGGVWHASGTARIGRADDSQAVVDKAGRVYGVTGLRVADASIMPTVPTANTNLPTLMLAEKIADAILTQA
notes: N-terminal His-SUMO fusion (Champion pET SUMO), tag not cleaved; E. coli BL21(DE3)

Key:
O=[N+]([O-])c1ccc(CO)cc1 = test system: T1, O=[N+]([O-])c1ccc(CO)cc1; test: coupled HRP H2O2 assay, Michaelis-Menten; assay type: biochemical, Methylovorus sp. MP688; conditions: O2 (co-substrate), 100 mM sodium phosphate pH 7.0, 30 °C
T1 construct: N-terminal His-SUMO fusion (Champion pET SUMO), tag not cleaved; E. coli BL21(DE3)
Source text: (§1) coupled HRP H2O2 assay, Michaelis-Menten on 5-(hydroxymethyl)furfural oxidase (HMFO)

[1] = test system: T2, O=Cc1ccc([N+](=O)[O-])cc1; test: coupled HRP H2O2 assay, Michaelis-Menten; assay type: biochemical, Methylovorus sp. MP688; conditions: O2 (co-substrate), 100 mM sodium phosphate pH 7.0, 30 °C, aldehyde oxidised via its gem-diol hydrate
T2 construct: N-terminal His-SUMO fusion (Champion pET SUMO), tag not cleaved; E. coli BL21(DE3)
Source text: as §1

[2] = substrate: O=Cc1ccc([N+](=O)[O-])cc1; test: coupled HRP H2O2 assay, Michaelis-Menten; assay type: biochemical, Methylovorus sp. MP688; conditions: O2 (co-substrate), 100 mM sodium phosphate pH 7.0, 30 °C, aldehyde oxidised via its gem-diol hydrate
Source text: as §1

purified protein = substrate: O=[N+]([O-])c1ccc(CO)cc1; test: purified protein; conditions: O2 (co-substrate), 100 mM sodium phosphate pH 7.0, 30 °C

Molecule | Km (O=[N+]([O-])c1ccc(CO)cc1) [µM] | kcat (O=[N+]([O-])c1ccc(CO)cc1) [s⁻¹] | kcat/Km (O=[N+]([O-])c1ccc(CO)cc1) [M⁻¹ s⁻¹] | Km [1] [µM] | kcat [1] [s⁻¹] | kcat/Km [1] [M⁻¹ s⁻¹] | Km [2] [µM] | kcat [2] [s⁻¹] | kcat/Km [2] [M⁻¹ s⁻¹] | Km (purified protein) [µM] | kcat (purified protein) [s⁻¹] | kcat/Km (purified protein) [M⁻¹ s⁻¹]
5-(hydroxymethyl)furfural oxidase (HMFO) (Methylovorus sp. MP688; V465T) | 30 | 1.7 | 57000 |  |  |  |  |  |  |  |  | 
5-(hydroxymethyl)furfural oxidase (HMFO) (Methylovorus sp. MP688; W466H) | 400 | 0.02 | 50 | 160 | 0.003 | 20 |  |  |  |  |  | 
B1 |  |  |  |  |  |  | 310 | 0.3 | 970 | 260 | 7.4 | 28000
